Measurements reported in patent US20030022837A1 (Stanford University, published 2003).

Target: T1, His-Cdc20 (baculovirus-expressed human Cdc20) (human, UniProt Q12834 1-499)
T1 construct: Also used for the Cdc20 baculovirus of the SF9 co-infection; also called purified baculovirus-expressed Cdc20; Baculovirus-expressed Cdc20; not shown: His tag
Assay: SF9 cells co-infected with Emi1 and Cdc20 baculoviruses, anti-Emi1 immunoprecipitation, Cdc20 immunoblot

T1 sequence (Q12834 whole entry): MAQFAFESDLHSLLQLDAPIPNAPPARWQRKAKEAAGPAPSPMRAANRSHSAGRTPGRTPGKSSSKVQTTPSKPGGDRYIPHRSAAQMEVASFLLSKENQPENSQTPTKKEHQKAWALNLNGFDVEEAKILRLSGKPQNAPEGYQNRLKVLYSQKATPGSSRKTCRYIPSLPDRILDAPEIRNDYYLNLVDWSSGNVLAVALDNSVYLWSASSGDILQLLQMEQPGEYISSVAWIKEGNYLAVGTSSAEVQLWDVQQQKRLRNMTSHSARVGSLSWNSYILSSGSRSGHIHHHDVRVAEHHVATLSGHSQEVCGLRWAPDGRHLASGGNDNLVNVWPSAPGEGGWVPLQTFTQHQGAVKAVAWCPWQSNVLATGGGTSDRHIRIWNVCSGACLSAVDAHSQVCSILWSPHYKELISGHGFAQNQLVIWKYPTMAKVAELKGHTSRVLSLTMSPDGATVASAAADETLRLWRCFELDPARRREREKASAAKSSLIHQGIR

- binding result: binds
B1: Xenopus Emi1 (Early Mitotic Inhibitor 1), full-length wild type (other)
chain: MMCGFASNQSPKKLSSKKSSATNVHLEISPVKHHPPCKVYENVQGSCLDSAICTTVAKCADLTDDLPVHNKENLLHRLNDLETNSYEEYSALQDSGYSSILQNDSPCQDETDRKVSDIQVRETPKNFMSYQRPFHTLSKINLPILRFEEAVCSTLKKMRKTNKKIDWNAVDVVCGGNYGLEHLIGKSMGLERFDILAELFHRDFKHLLTKILRHLSAMDLINVISVSTTWRKLLQKDNWAYNAYKLGCKELCEKRAKVSSHTATRDESLCRVPLASVQKVAASSLCTSKKQSKNKNGGLSCNRLAEFIEVAQTLKNDQSLKVCVDCGSPAKHDPCLHRAICTRESCKLDFCTRCSCKYHFSKSCLMSKPGSYRIPSEPLPGSKKSKQNLRRL
notes: 392 residues; also called xEmi1; Emi1p
